Earlier results, collected in publication PMC6640714.

Target: FcγRIa (Homo sapiens) (UniProt P12314)
Assay: given as Ka

IgG4, sequence (P01861 whole entry): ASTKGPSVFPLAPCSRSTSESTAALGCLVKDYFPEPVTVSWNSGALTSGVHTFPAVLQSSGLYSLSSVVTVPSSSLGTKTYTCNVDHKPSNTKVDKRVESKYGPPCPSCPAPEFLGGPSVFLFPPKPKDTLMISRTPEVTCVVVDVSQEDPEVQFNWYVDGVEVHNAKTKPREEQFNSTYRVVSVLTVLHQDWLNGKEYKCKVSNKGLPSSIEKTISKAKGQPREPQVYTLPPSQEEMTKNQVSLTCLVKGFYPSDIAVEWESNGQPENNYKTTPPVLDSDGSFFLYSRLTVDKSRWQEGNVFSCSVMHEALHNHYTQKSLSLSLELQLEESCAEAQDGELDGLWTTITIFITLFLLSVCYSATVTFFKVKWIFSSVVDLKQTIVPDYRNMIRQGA
FcγRIa (Homo sapiens), sequence (P12314 16-374): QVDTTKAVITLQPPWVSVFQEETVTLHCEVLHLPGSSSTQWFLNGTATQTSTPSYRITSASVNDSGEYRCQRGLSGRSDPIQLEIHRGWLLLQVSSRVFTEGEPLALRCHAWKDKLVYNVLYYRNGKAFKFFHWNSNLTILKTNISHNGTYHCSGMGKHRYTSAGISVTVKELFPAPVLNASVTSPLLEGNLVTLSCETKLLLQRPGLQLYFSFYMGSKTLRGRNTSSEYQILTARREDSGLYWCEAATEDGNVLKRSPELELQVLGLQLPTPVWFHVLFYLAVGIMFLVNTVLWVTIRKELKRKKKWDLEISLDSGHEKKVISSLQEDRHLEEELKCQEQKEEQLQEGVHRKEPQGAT

Kd: 29.4 nM
Substance: IgG4 (from UniProt P01861)
